This passage reports activity (% NHEJ mutagenesis) results from patent US20150368659.

Data set [1] deals with GBSS_T1 TALE-nuclease right monomer (synthetic construct (Xanthomonas TALE)?). The experiment in a line: cell_activity. Particulars: pair with left monomer; S. tuberosum protoplasts; 23% with TREX2 co-delivered; full target SEQ 5.
For data set [2], the system named is GBSS_T1 TALE-nuclease left monomer (synthetic construct (Xanthomonas TALE)?). The experiment in a line: cell_activity. Particulars: pair with right monomer; S. tuberosum protoplasts; 23% with TREX2 co-delivered; full target SEQ 5.

“AGCTTGATGGGCTCCAA (double strand) [GBSS_T1 right half-site]” had an activity (% NHEJ mutagenesis) in data set [1] of 11.
Consider “TCTGACTCACAATGGTT (double strand) [GBSS_T1 left half-site]”, for which, in data set [2], the activity (% NHEJ mutagenesis) amounted to 11.
